Results on one molecule are retold here after PMC4250834 (Cell reports, 2014).

No end group written: not given here.

This experiment addresses T1, recombinant Clp1 (alone) (S. cerevisiae, UniProt Q08685 1-445).
T1 sequence (looked up): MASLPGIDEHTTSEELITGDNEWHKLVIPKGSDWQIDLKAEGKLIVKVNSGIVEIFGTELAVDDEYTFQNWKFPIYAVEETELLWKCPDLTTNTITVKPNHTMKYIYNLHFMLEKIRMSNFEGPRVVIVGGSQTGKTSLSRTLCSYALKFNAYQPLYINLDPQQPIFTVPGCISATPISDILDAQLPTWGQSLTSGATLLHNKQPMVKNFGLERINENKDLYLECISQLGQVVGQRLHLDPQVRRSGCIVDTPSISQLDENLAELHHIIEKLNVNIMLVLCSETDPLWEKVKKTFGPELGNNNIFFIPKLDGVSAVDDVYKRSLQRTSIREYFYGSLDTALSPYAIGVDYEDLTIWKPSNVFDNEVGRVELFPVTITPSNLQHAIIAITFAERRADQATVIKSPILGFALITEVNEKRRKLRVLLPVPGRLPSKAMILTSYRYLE
In words: pull-down.

For TTPISPDEEELGQRTAYHSKRDASTPLRS (peptide, UniProt P08518 915-943, looked up, also: biotin, site not given here) [biotinylated flap loop peptide (Rpb2 amino acids 915–943)], the binding result was “binds”.
